In article PMC8888459 (2022):

B1: Yah1-GST fusion protein (natural protein)
chain: IAAHLLRTSPSLLTRTTTTTRFLPFSTSSFLNHGHLKKPKPGEELKITFILKDGSQKTYEVCEGETILDIAQGHNLDMEGACGGSCACSTCHVIVDPDYYDALPEPEDDENDMLDLAYGLTETSRLGCQIKMSKDIDGIRVALPQMTRNVNNNDFS

Tests used:
[1] = biological target: T1, NIA–Isu1 complex with C. thermophilum Isu1 (S. cerevisiae | E. coli (endogenous in …, UniProt P25374 37-497; Q6Q560 1-94; P0A6A8 1-78); experiment: BLI; kd1 of 2:1 fit
[2] = biological target: T1, NIA–Isu1 complex with C. thermophilum …; experiment: BLI; kd1 of 2:1 fit; remark: listed apart in the source
[3] = biological target: T1, NIA–Isu1 complex with C. thermophilum …; experiment: BLI; kd2 of 2:1 fit, second site
[4] = biological target: T1, NIA–Isu1 complex with C. thermophilum …; experiment: BLI; kd2 of 2:1 fit, second site; remark: listed apart in the source
[5] = biological target: T1, NIA–Isu1 complex with C. thermophilum …; experiment: BLI; KD1 of 2:1 heterogeneous ligand fit (46%)
[6] = biological target: T1, NIA–Isu1 complex with C. thermophilum …; experiment: BLI; KD1 of 2:1 heterogeneous ligand fit (43%)
[7] = biological target: T1, NIA–Isu1 complex with C. thermophilum …; experiment: BLI; KD2 of 2:1 heterogeneous ligand fit (54%), second site
[8] = biological target: T1, NIA–Isu1 complex with C. thermophilum …; experiment: BLI; KD2 of 2:1 heterogeneous ligand fit (57%), second site
Yah1-GST fusion protein [9] = biological target: B1; experiment: BLI; kd1 of 2:1 fit
Yah1-GST fusion protein [10] = biological target: B1; experiment: BLI; kd2 of 2:1 fit, second site
Yah1-GST fusion protein [11] = biological target: B1; experiment: BLI; anaerobic, reduced Yah1; kd1 of 2:1 fit
Yah1-GST fusion protein [12] = biological target: B1; experiment: BLI; KD1 of 2:1 heterogeneous ligand fit (38%)
Yah1-GST fusion protein [13] = biological target: B1; experiment: BLI; anaerobic, reduced Yah1; KD1 of 2:1 fit (37%)
Yah1-GST fusion protein [14] = biological target: B1; experiment: BLI; anaerobic, reduced Yah1 (Fig. 6C); kd1 of 2:1 fit
Yah1-GST fusion protein [15] = biological target: B1; experiment: BLI; anaerobic, reduced Yah1; kd2 of 2:1 fit, second site
Yah1-GST fusion protein [16] = biological target: B1; experiment: BLI; KD2 of 2:1 heterogeneous ligand fit (62%), second site
Yah1-GST fusion protein [17] = biological target: B1; experiment: BLI; anaerobic, reduced Yah1 (Fig. 6C); KD1 of 2:1 fit (45%)
Yah1-GST fusion protein [18] = biological target: B1; experiment: BLI; anaerobic, reduced Yah1; KD2 of 2:1 fit (63%), second site
Yah1-GST fusion protein [19] = biological target: B1; experiment: BLI; anaerobic, reduced Yah1 (Fig. 6C); kd2 of 2:1 fit, second site
Yah1-GST fusion protein [20] = biological target: B1; experiment: BLI; anaerobic, reduced Yah1 (Fig. 6C); KD2 of 2:1 fit (55%), second site
[21] = biological target: T2, NIA complex (Nfs1–Isd11–ACPEc) (S. cerevisiae | E. coli (endogenous in …, UniProt P25374 37-497; Q6Q560 1-94; P0A6A8 1-78); experiment: BLI; kd1 of 2:1 fit
T2 chain 1: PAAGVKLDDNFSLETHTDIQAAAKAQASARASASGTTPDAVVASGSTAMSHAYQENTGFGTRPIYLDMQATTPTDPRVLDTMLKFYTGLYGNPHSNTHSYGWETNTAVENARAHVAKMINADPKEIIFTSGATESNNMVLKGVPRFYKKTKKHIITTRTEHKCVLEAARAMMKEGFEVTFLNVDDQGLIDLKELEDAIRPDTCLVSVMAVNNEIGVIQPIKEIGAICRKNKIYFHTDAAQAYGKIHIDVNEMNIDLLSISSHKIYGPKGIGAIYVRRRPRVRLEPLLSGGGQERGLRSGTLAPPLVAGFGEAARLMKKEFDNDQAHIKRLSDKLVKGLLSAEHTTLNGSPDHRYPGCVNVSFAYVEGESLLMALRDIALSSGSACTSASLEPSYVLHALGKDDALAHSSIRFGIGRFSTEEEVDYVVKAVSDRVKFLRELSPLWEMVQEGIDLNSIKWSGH
T2 chain 2: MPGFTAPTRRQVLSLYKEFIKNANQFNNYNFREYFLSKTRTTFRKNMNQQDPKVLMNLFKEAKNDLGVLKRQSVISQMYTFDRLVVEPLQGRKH
T2 chain 3: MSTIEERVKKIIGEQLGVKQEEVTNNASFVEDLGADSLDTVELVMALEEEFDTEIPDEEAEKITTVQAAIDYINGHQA

[22] = biological target: T2, NIA complex (Nfs1–Isd11–ACPEc); experiment: BLI; kd2 of 2:1 fit, second site
[23] = biological target: T2, NIA complex (Nfs1–Isd11–ACPEc); experiment: BLI; KD1 of 2:1 heterogeneous ligand fit (61%)
[24] = biological target: T2, NIA complex (Nfs1–Isd11–ACPEc); experiment: BLI; KD2 of 2:1 heterogeneous ligand fit (39%), second site

**Q.** Which results are given for B1?
**A.** koff [1]: 0.00167 s⁻¹; koff [2]: 0.00118 s⁻¹; koff [3]: 0.109 s⁻¹; koff [4]: 0.0403 s⁻¹; Kd [5]: 228 nM; Kd [6]: 184 nM; Kd [7]: 212 nM; Kd [8]: 800 nM

B2: NIA–Isu1 complex with S. cerevisiae Isu1 (complex)
chain 1: PAAGVKLDDNFSLETHTDIQAAAKAQASARASASGTTPDAVVASGSTAMSHAYQENTGFGTRPIYLDMQATTPTDPRVLDTMLKFYTGLYGNPHSNTHSYGWETNTAVENARAHVAKMINADPKEIIFTSGATESNNMVLKGVPRFYKKTKKHIITTRTEHKCVLEAARAMMKEGFEVTFLNVDDQGLIDLKELEDAIRPDTCLVSVMAVNNEIGVIQPIKEIGAICRKNKIYFHTDAAQAYGKIHIDVNEMNIDLLSISSHKIYGPKGIGAIYVRRRPRVRLEPLLSGGGQERGLRSGTLAPPLVAGFGEAARLMKKEFDNDQAHIKRLSDKLVKGLLSAEHTTLNGSPDHRYPGCVNVSFAYVEGESLLMALRDIALSSGSACTSASLEPSYVLHALGKDDALAHSSIRFGIGRFSTEEEVDYVVKAVSDRVKFLRELSPLWEMVQEGIDLNSIKWSGH
chain 2: MPGFTAPTRRQVLSLYKEFIKNANQFNNYNFREYFLSKTRTTFRKNMNQQDPKVLMNLFKEAKNDLGVLKRQSVISQMYTFDRLVVEPLQGRKH
chain 3: MSTIEERVKKIIGEQLGVKQEEVTNNASFVEDLGADSLDTVELVMALEEEFDTEIPDEEAEKITTVQAAIDYINGHQA
chain 4: SSITKRLYHPKVIEHYTHPRNVGSLDKKLPNVGTGLVGAPACGDVMRLQIKVNDSTGVIEDVKFKTFGCGSAIASSSYMTELVQGMTLDDAAKIKNTEIAKELSLPPVKLHCSMLAEDAIKAAIKDYKSKRNTPTMLS
**Q.** Which results are given for B2?
**A.** koff (Yah1-GST fusion protein [9]): 0.000977 s⁻¹; koff (Yah1-GST fusion protein [10]): 0.0375 s⁻¹; koff (Yah1-GST fusion protein [11]): 4.05e-07 s⁻¹; Kd (Yah1-GST fusion protein [12]): 325 nM; Kd (Yah1-GST fusion protein [13]): 0.0165 nM; koff (Yah1-GST fusion protein [14]): 4.99e-07 s⁻¹; koff (Yah1-GST fusion protein [15]): 0.00421 s⁻¹; Kd (Yah1-GST fusion protein [16]): 660 nM; Kd (Yah1-GST fusion protein [17]): 0.02 nM; Kd (Yah1-GST fusion protein [18]): 15.3 nM; koff (Yah1-GST fusion protein [19]): 0.00777 s⁻¹; Kd (Yah1-GST fusion protein [20]): 19.2 nM

B3: Yah1 (untagged, holo) (natural protein)
chain: IAAHLLRTSPSLLTRTTTTTRFLPFSTSSFLNHGHLKKPKPGEELKITFILKDGSQKTYEVCEGETILDIAQGHNLDMEGACGGSCACSTCHVIVDPDYYDALPEPEDDENDMLDLAYGLTETSRLGCQIKMSKDIDGIRVALPQMTRNVNNNDFS
**Q.** Which koff [21] does the source give for B3 here?
**A.** 2.08e-07 s⁻¹

**Q.** What about the koff [22] of the same binder?
**A.** 0.00156 s⁻¹

**Q.** And the Kd [23]?
**A.** 0.307 nM

**Q.** And the Kd [24]?
**A.** 544 nM
